According to patent US20240041989A1 (UNIVERSITY OF KENTUCKY RESEARCH FOUNDATION, published 2024):

Key:
[1] = biological target: T1, Human FcRn, soluble single-chain fusion protein (B2M-(GGGGS)3-heavy chain without transmembrane domain-6xHis) (human, UniProt P61769 21-119; P55899 24-297); assay: ELISA, FcRn coated on plate, pH 6.0
T1 construct: also called neonatal Fc receptor; hFcRn
Description: (§1) In vitro binding affinity assay. The binding affinity of the BChE fusion proteins corresponding to CocH3-Fc (SEQ ID NO: 9), CocH3-Fc(M6) (SEQ ID NO: 10), CocH3G-Fc(M3) (SEQ ID NO: 11), CocH3G-Fc(M4) (SEQ ID NO: 12), CocH3G-Fc(M6) (SEQ ID NO: 13), CocH5G-Fc(M3) (SEQ ID NO: 14), CocH5G-Fc(M4) (SEQ ID NO: 15), and CocH5G-Fc(M6) (SEQ ID NO: 16), BChE-Fc(M3) (SEQ ID NO: 17), BChE-Fc(M4) (SEQ ID NO: 18), and BChE-Fc(M6) (SEQ ID NO: 19) with FcRn was determined by using an enzyme-linked immunosorbent assay (ELISA). 400 ng of the 6×His-tagged FcRn in 100 μL 0.05 M PBS, pH 7.4, was immobilized in a 96-well flat-bottomed EIA plate (Corning) at 4° C. overnight (or 37° C. for 2 hours). At the same time, corresponding empty wells without FcRn coating were left as a negative control. The liquid was dumped from the plates and the rest was drained on a paper towel. Coated wells were blocked with blocking buffer (0.05 M PBS, pH 6.0, containing 1 mg/ml casein) (250 μL/well) at room temperature (RT) for 1 hour. After washing twice with washing buffer (0.05 M PBS, pH 6.0) (250 μL/well), 100 μL of BChE fusion protein diluted in blocking buffer, pH 6.0 was added to each well at a range of concentrations. The plate was then covered with an adhesive plastic and incubated, with continuous shaking, at RT for 1 hour. After washing three times with washing buffer, an enzyme horseradish peroxidase (HRP)-conjugated antibody (anti-human IgG-Fc Ab-HRP) (70 μL/well), diluted with blocking buffer at a ratio of 1:20,000, was added into each well and incubated at RT for 30 minutes on a shaker. The wells were then washed three times with washing buffer (250 μL/well) before 250 μL TMB substrate was added to the wells. The ELISA plate was kept in the dark until the desired color developed. The reaction was stopped with 100 μL of 0.5 M HCl. The absorbance (the developed blue color) was measured at 450 nm using a microplate reader. All measurements were performed in triplicate or quadruplicate.

[2] = biological target: T1, Human FcRn, soluble single-chain fusion …; assay: ELISA, FcRn coated on plate, pH 6.0; reference CocH3-Fc
Description: as §1, with “After washing three times with washing buffer, an enzyme horseradish peroxidase (HRP)-conjugated antibody (anti-human IgG-Fc Ab-HRP) (70 μL/well), diluted with blocking buffer at a ratio of 1:20,000, was added into each well and incubated at RT for 30 minutes on a shaker. The wells were then washed three times with washing buffer (250 μL/well) before 250 μL TMB substrate was added to the wells. The ELISA plate was kept in the dark until the desired color developed. The reaction was stopped with 100 μL of 0.5 M HCl.” left out, “All measurements were performed in triplicate or quadruplicate.” left out

[3] = biological target: T1, Human FcRn, soluble single-chain fusion …; assay: ELISA, FcRn coated on plate, pH 6.0, anti-human IgG-Fc-HRP detection
Description: as §1, with “After washing three times with washing buffer, an enzyme horseradish peroxidase (HRP)-conjugated antibody (anti-human IgG-Fc Ab-HRP) (70 μL/well), diluted with blocking buffer at a ratio of 1:20,000, was added into each well and incubated at RT for 30 minutes on a shaker. The wells were then washed three times with washing buffer (250 μL/well) before 250 μL TMB substrate was added to the wells. The ELISA plate was kept in the dark until the desired color developed. The reaction was stopped with 100 μL of 0.5 M HCl.” left out, “All measurements were performed in triplicate or quadruplicate.” left out

T1 sequence (P61769 other isoform, or with tags, fused parts or gaps limits assumed): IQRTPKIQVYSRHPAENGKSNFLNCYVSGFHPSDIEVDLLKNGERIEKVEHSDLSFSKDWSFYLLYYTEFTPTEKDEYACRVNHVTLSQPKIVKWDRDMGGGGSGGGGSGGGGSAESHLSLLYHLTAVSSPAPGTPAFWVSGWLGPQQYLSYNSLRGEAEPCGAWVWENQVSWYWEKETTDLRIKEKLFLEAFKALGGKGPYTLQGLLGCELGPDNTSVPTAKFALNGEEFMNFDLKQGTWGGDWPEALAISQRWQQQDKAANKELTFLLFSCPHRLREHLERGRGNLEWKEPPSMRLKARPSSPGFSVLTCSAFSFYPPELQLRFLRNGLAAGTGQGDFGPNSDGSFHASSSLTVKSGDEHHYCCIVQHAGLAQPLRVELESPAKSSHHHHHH

Kd [1] [nM]	fold improvement in binding affinity against CocH3-Fc [2] [fold]	Kd [3] [nM]	Binder
40			BChE-Fc(M6) (Fc fusion, Wild-type BChE fused to Fc(M6)) EDDIIIATKNGKVRGMNLTVFGGTVTAFLGIPYAQPPLGRLRFKKPQSLTKWSDIWNATKYANSCCQNIDQSFPGFHGSEMWNPNTDLSEDCLYLNVWIPAPKPKNATVLIWIYGGGFQTGTSSLHVYDGKFLARVERVIVVSMNYRVGALGFLALPGNPEAPGNMGLFDQQLALQWVQKNIAAFGGNPKSVTLFGESAGAASVSLHLLSPGSHSLFTRAILQSGSFNAPWAVTSLYEARNRTLNLAKLTGCSRENETEIIKCLRNKDPQEILLNEAFVVPYGTPLSVNFGPTVDGDFLTDMPDILLELGQFKKTQILVGVNKDEGTAFLVYGAPGFSKDNNSIITRKEFQEGLKIFFPGVSEFGKESILFHYTDWVDDQRPENYREALGDVVGDYNFICPALEFTKKFSEWGNNAFFYYFEHRSSKLPWPEWMGVMHGYEIEFVFGLPLERRDNYTKAEEILSRSIVKRWANFAKYGNPNETQNNSTSWPVFKSTEQKYLTLNTESTRIMTKLRAQQCRFWTSFFPKVVEPKSCDKTHTCPPCPAPELLGGPSVFLFPPKPKDTLYITREPEVTCVVVDVSHEDPEVKFNWYVDGVEVHNAKTKPREEQYNSTYRVVSVLTVLHQDWLNGKEYKCKVSNKALPAPIEKTISKAKGQPREPQVYTLPPSREEMTKNQVSLTCLVKGFYPSDIAVEWESNGQPENNYKTTPPVLDSDGSFFLYSKLTVDKSRWQQGNVFSCSVMHEALHNHYTQKSLSLSPGK
40			CocH5G-Fc(M6) (Fc fusion) EDDIIIATKNGKVRGMNLTVFGGTVTAFLGIPYAQPPLGRLRFKKPQSLTKWSDIWNATKYANSCCQNIDQSFPGFHGSEMWNPNTDLSEDCLYLNVWIPAPKPKNATVLIWIYGGGFQTGTSSLHVYDGKFLARVERVIVVSMNYRVGALGFLALPGNPEAPGNMGLFDQQLALQWVQKNIAAFGGNPKSVTLFGESSGAASVSLHLLSPGSHSLFTRAILQSGSANAPWAVTSLYEARNRTLNLAKLTGCSRENETEIIKCLRNKDPQEILLNEAFVVPYGTALGVNFGPTVDGDFLTDMPDILLELGQFKKTQILVGVNKDEGTWFLVGGAPGFSKDNNSIITRKEFQEGLKIFFPGVSEFGKESILFHYTDWVDDQRPENYREALGDVVGDYNFICPALEFTKKFSEWGNNAFFYYFEHRSSKLPWPEWMGVMHGYEIEFVFGLPLERRDNYTKAEEILSRSIVKRWANFAKYGNPNETQNNSTSWPVFKSTEQKYLTLNTESTRIMTKLRAQQCRFWGSFFPKVVEPKSCDKTHTCPPCPAPELLGGPSVFLFPPKPKDTLYITREPEVTCVVVDVSHEDPEVKFNWYVDGVEVHNAKTKPREEQYNSTYRVVSVLTVLHQDWLNGKEYKCKVSNKALPAPIEKTISKAKGQPREPQVYTLPPSREEMTKNQVSLTCLVKGFYPSDIAVEWESNGQPENNYKTTPPVLDSDGSFFLYSKLTVDKSRWQQGNVFSCSVMHEALHNHYTQKSLSLSPGK
40			CocH3G-Fc(M6) (Fc fusion) EDDIIIATKNGKVRGMNLTVFGGTVTAFLGIPYAQPPLGRLRFKKPQSLTKWSDIWNATKYANSCCQNIDQSFPGFHGSEMWNPNTDLSEDCLYLNVWIPAPKPKNATVLIWIYGGGFQTGTSSLHVYDGKFLARVERVIVVSMNYRVGALGFLALPGNPEAPGNMGLFDQQLALQWVQKNIAAFGGNPKSVTLFGESSGAASVSLHLLSPGSHSLFTRAILQSGSANAPWAVTSLYEARNRTLNLAKLTGCSRENETEIIKCLRNKDPQEILLNEAFVVPYGTPLGVNFGPTVDGDFLTDMPDILLELGQFKKTQILVGVNKDEGTWFLVGGAPGFSKDNNSIITRKEFQEGLKIFFPGVSEFGKESILFHYTDWVDDQRPENYREALGDVVGDYNFICPALEFTKKFSEWGNNAFFYYFEHRSSKLPWPEWMGVMHGYEIEFVFGLPLERRDNYTKAEEILSRSIVKRWANFAKYGNPNETQNNSTSWPVFKSTEQKYLTLNTESTRIMTKLRAQQCRFWGSFFPKVVEPKSCDKTHTCPPCPAPELLGGPSVFLFPPKPKDTLYITREPEVTCVVVDVSHEDPEVKFNWYVDGVEVHNAKTKPREEQYNSTYRVVSVLTVLHQDWLNGKEYKCKVSNKALPAPIEKTISKAKGQPREPQVYTLPPSREEMTKNQVSLTCLVKGFYPSDIAVEWESNGQPENNYKTTPPVLDSDGSFFLYSKLTVDKSRWQQGNVFSCSVMHEALHNHYTQKSLSLSPGK
43	~100	43	CocH3-Fc(M6) (Fc fusion, Expressed in CHO-S cells and purified on protein A; also called A530V/M567Y/S569T/T571E/D671E/L673M mutant of CocH3-Fc) EDDIIIATKNGKVRGMNLTVFGGTVTAFLGIPYAQPPLGRLRFKKPQSLTKWSDIWNATKYANSCCQNIDQSFPGFHGSEMWNPNTDLSEDCLYLNVWIPAPKPKNATVLIWIYGGGFQTGTSSLHVYDGKFLARVERVIVVSMNYRVGALGFLALPGNPEAPGNMGLFDQQLALQWVQKNIAAFGGNPKSVTLFGESSGAASVSLHLLSPGSHSLFTRAILQSGSANAPWAVTSLYEARNRTLNLAKLTGCSRENETEIIKCLRNKDPQEILLNEAFVVPYGTPLGVNFGPTVDGDFLTDMPDILLELGQFKKTQILVGVNKDEGTWFLVGGAPGFSKDNNSIITRKEFQEGLKIFFPGVSEFGKESILFHYTDWVDDQRPENYREALGDVVGDYNFICPALEFTKKFSEWGNNAFFYYFEHRSSKLPWPEWMGVMHGYEIEFVFGLPLERRDNYTKAEEILSRSIVKRWANFAKYGNPNETQNNSTSWPVFKSTEQKYLTLNTESTRIMTKLRAQQCRFWTSFFPKVVEPKSCDKTHTCPPCPAPELLGGPSVFLFPPKPKDTLYITREPEVTCVVVDVSHEDPEVKFNWYVDGVEVHNAKTKPREEQYNSTYRVVSVLTVLHQDWLNGKEYKCKVSNKALPAPIEKTISKAKGQPREPQVYTLPPSREEMTKNQVSLTCLVKGFYPSDIAVEWESNGQPENNYKTTPPVLDSDGSFFLYSKLTVDKSRWQQGNVFSCSVMHEALHNHYTQKSLSLSPGK
